Results published in publication PMC1669761 (Nucleic Acids Research, 2006).

Target: T1, purified His-tagged Smad4 (human, UniProt Q13485 1-552)
T1 sequence (looked up): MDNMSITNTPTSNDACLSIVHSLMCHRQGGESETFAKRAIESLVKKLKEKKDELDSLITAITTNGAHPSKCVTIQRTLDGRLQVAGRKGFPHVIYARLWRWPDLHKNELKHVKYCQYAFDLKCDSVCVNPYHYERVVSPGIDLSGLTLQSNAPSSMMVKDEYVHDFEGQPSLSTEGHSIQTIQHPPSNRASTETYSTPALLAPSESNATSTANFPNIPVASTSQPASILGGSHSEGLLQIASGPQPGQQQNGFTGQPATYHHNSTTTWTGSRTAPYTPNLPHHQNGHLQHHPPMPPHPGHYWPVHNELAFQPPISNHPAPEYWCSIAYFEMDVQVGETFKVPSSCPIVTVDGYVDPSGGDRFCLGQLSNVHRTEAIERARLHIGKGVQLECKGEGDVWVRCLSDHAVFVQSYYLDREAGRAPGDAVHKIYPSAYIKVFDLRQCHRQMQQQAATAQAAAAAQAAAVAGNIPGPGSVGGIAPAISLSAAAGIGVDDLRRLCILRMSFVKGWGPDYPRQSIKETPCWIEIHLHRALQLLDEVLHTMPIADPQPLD
Assay: pull-down

binding result: binds
B1: GST-RBPMS(1–100) (domain or fragment)
chain: not shown
